Experimental findings from article PMC11059001, “Crystal structure of Trichinella spiralis calreticulin and the structural basis of its complement evasion mechanism involving C1q” (Frontiers in Immunology, 2024) are described below.

This assay addresses T1, complement C1q (human, UniProt P02745;P02746;P02747).
T1 construct: also called human complement C1q; source: bought: Merk (Darmstadt, Germany); copies: 6 + 6 + 6
Put plainly: MST; fluorescently labelled C1q (RED-NHS) 40 nM; TsCRT, TsCRT^Δ, mutants or P^TsCRT gradient-diluted; 50 mM Hepes, 150 mM NaCl, 2 mM CaCl2, 0.05% Tween 20, pH 7.4; Monolith NT.115, LED power 20%, MST power 50%. Particulars: both partners purified.

T1 sequence (P02745 23-245, chain 1 of 3): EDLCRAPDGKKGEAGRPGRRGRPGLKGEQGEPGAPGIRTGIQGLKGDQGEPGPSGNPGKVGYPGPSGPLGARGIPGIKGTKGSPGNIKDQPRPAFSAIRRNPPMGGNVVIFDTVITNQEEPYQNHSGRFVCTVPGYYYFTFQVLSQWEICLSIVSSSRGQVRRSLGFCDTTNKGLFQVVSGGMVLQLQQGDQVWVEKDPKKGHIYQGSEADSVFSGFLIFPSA
T1 sequence (P02746 28-253, chain 2 of 3): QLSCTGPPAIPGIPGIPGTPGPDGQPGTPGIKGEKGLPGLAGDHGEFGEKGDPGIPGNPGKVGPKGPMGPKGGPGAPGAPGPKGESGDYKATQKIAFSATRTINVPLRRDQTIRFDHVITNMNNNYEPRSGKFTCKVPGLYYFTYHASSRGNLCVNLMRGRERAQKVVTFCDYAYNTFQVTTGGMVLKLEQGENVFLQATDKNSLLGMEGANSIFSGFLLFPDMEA
T1 sequence (P02747 29-245, chain 3 of 3): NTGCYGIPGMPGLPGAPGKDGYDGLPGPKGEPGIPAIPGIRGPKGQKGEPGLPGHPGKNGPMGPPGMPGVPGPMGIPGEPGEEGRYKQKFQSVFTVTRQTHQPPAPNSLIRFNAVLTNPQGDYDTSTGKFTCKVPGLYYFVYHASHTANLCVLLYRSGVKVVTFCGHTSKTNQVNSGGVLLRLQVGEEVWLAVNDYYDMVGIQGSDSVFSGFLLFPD

B1: C1q-binding peptide P^TsCRT (TsCRT residues 122-146) (peptide)
peptide: DLEDFNSDTPYRIMFGPDICGPEKR
notes: calreticulin of Trichinella spiralis (TsCRT), residues 122-146; source: synthetic peptide
By Kd is commonly meant the free concentration of one partner at which half of the binding sites on the other are occupied at equilibrium, for simple one-to-one binding. Lower therefore signals a tighter complex. As for B1, the Kd amounted to 260 nM.
